According to PMC4596477, “Interaction of Myosin Phosphatase Target Subunit (MYPT1) with Myosin Phosphatase-RhoA Interacting Protein (MRIP): A Role of Glutamic Acids in the Interaction” (PLoS ONE, 2015):

Columns and labels:
[1] = GST-tag, expressed in bacteria, after affinity purification
Description: Sedimentation velocity was performed over a range of concentrations of MRIP^545-878 (1.5–13.6 μM), MRIP^724-878 (4.7–42.3 μM), and MRIP^724-837 (7.5–67.1 μM) (Fig 2A).
To elucidate the stoichiometries of the MRIP peptides, the SedAnal program was used for curve fitting (Fig 2B). […] Diffusion contains important information about the shape of the molecule and that information is used in the data analysis. The recovery of samples after centrifugation is essentially 99% of the loading materials. […] The root mean square deviation (RMSD) of the fit was 0.010. […] The RMSD of the fit was 0.008.
We expressed and purified the MRIP peptide (residues 545–929) and the full-length MRIP protein using a chitin-binding tag and a GST-tag, respectively in bacteria.

full-length MYPT1 = conditions: immunoprecipitation and immunoblotting; ref [7],[11],[12]; cited from earlier work
Description: It is, however, not clear which residues of MRIP are critical for its binding to MYPT1.

B1: GST-tagged full-length MRIP: full-length MRIP protein with GST-tag, expressed in bacteria (protein, UniProt Q6WCQ1 1-1025, looked up)
chain: MSAAKENPCRKFQANIFNKSKCQNCFKPRESHLLNDEDLTQAKPIYGGWLLLAPDGTDFDNPVHRSRKWQRRFFILYEHGLLRYALDEMPTTLPQGTINMNQCTDVVDGEGRTGQKFSLCILTPEKEHFIRAETKEIVSGWLEMLMVYPRTNKQNQKKKRKVEPPTPQEPGPAKVAVTSSSSSSSSSSSIPSAEKVPTTKSTLWQEEMRTKDQPDGSSLSPAQSPSQSQPPAASSLREPGLESKEEESAMSSDRMDCGRKVRVESGYFSLEKTKQDLKAEEQQLPPPLSPPSPSTPNHRRSQVIEKFEALDIEKAEHMETNAVGPSPSSDTRQGRSEKRAFPRKRDFTNEAPPAPLPDASASPLSPHRRAKSLDRRSTEPSVTPDLLNFKKGWLTKQYEDGQWKKHWFVLADQSLRYYRDSVAEEAADLDGEIDLSACYDVTEYPVQRNYGFQIHTKEGEFTLSAMTSGIRRNWIQTIMKHVHPTTAPDVTSSLPEEKNKSSCSFETCPRPTEKQEAELGEPDPEQKRSRARERRREGRSKTFDWAEFRPIQQALAQERVGGVGPADTHEPLRPEAEPGELERERARRREERRKRFGMLDATDGPGTEDAALRMEVDRSPGLPMSDLKTHNVHVEIEQRWHQVETTPLREEKQVPIAPVHLSSEDGGDRLSTHELTSLLEKELEQSQKEASDLLEQNRLLQDQLRVALGREQSAREGYVLQATCERGFAAMEETHQKKIEDLQRQHQRELEKLREEKDRLLAEETAATISAIEAMKNAHREEMERELEKSQRSQISSVNSDVEALRRQYLEELQSVQRELEVLSEQYSQKCLENAHLAQALEAERQALRQCQRENQELNAHNQELNNRLAAEITRLRTLLTGDGGGEATGSPLAQGKDAYELEVLLRVKESEIQYLKQEISSLKDELQTALRDKKYASDKYKDIYTELSIAKAKADCDISRLKEQLKAATEALGEKSPDSATVSGYDIMKSKSNPDFLKKDRSCVTRQLRNIRSKSVIEQVSWDT
modifications: full-length GST tag
precipitation [1]: precipitated after affinity purification

B2: MRIP: Myosin phosphatase-RhoA interacting protein (protein, UniProt Q6WCQ1 1-1025, looked up)
chain: B1 chain
modifications: full-length
interaction with full-length MYPT1 (full-length MYPT1): interacts with the full-length MYPT1
